Experiments:
transmembrane human FAP = molecular target: T1, transmembrane human FAP (Homo sapiens, UniProt Q12884); assay: Flow cytometry on FAP-HEK293 cells at pH 7.4, 6.8, 6.4; format: cell-based; conditions: pH 6.4 and 6.8 vs pH 7.4, FAP-HEK293 cells, Cy5 labelled
T1 construct: retrovirus encoding full length human FAP cDNA; host or cells: HEK293 (FAP-HEK293, G418 selected)
T1 sequence (Q12884 1-760): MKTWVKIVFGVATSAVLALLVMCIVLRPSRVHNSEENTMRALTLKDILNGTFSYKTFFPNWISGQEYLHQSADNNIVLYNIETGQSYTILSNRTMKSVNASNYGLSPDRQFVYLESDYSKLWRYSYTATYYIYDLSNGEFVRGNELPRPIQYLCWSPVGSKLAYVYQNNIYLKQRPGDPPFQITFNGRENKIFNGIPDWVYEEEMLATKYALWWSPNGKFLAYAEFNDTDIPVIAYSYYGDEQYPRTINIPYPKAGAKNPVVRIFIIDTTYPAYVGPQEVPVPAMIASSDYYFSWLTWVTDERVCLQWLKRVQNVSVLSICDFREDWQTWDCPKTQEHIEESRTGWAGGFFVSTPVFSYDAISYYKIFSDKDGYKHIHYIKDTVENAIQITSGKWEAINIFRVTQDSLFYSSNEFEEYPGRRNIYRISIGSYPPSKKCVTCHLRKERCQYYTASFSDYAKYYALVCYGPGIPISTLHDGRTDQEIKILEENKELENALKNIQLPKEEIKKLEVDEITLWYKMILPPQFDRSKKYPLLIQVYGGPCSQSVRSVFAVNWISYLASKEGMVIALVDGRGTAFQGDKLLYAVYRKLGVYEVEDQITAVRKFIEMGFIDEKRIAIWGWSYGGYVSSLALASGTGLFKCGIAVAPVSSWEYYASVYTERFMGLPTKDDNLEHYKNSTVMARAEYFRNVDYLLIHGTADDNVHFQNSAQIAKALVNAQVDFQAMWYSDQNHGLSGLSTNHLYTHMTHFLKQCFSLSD
Protocol: To evaluate the binding of NI-206.82C2 to transmembrane human FAP, an FAP expressing HEK293 cell line was received from the National Institutes of Health, Bethesda, Md. The generation of this FAP expressing HEK293 cells is described in: J. Exp. Med. 2013 Vol. 210 No. 6 1125-1135.
HEK293 cells were transduced with retrovirus encoding full length human FAP cDNA. Cloning was performed using Fast Cloning Pack and FastDigest restriction enzymes (both from Fermentas). Transient retroviral supernatants were generated by transfecting 293GP cells with the FAP plasmid using Lipofectamine 2000 (Invitrogen). Retroviral supernatants were collected at 48 h after transfection and centrifuged onto Retronectin-coated (10 μg/ml; Takara), non-tissue culture-treated 6-well plates at 2,000 G for 2 h at 32° C. These retroviral supernatants where then used to transduce HEK293 cells overnight. Transduced FAP-HEK293 cells were selected with 1 mg/ml G418 (CellGro). […]
To analyze antibody binding, fluorescent activated flow cytometry was performed using a BD Fortesa device for forward scatter, side scatter, and the mean fluorescent intensity (MFI) of the Cy5 channel was recorded using a […] laser excitation and 600/20 filter. Viable cells were gated by forward and side scatter, and singlets/doublet exclusion, and the MFI for Cy5 was quantified using FlowJo software Version 10.1.

FAP from human plasma = molecular target: T2, FAP from human plasma (Homo sapiens, UniProt Q12884); assay: Immunoprecipitation of FAP from human plasma, α2AP-AMC cleavage in supernatant; format: biochemical; conditions: compared to plasma before immunoprecipitation
T2 construct: from tissue; host or cells: human blood plasma
T2 sequence (Q12884 24-760 limits assumed): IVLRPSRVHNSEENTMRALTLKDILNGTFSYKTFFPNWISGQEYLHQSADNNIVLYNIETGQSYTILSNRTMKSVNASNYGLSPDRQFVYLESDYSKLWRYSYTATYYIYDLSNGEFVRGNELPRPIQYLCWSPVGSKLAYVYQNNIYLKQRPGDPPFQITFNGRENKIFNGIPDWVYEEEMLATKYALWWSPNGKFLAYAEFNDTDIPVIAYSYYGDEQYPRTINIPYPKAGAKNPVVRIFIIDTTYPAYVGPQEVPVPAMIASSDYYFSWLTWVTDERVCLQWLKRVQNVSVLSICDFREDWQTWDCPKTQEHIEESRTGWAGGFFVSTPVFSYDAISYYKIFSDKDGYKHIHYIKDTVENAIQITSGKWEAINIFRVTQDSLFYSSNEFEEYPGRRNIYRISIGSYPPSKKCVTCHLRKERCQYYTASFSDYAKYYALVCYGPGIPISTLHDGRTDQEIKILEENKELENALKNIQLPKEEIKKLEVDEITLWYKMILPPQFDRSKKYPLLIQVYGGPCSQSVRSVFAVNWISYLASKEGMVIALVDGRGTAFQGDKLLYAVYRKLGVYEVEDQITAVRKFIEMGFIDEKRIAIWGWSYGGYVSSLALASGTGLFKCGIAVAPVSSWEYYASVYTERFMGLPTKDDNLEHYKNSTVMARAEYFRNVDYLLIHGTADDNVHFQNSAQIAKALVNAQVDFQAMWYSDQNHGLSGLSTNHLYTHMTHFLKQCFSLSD
Protocol: 100 μL of PureProteome G Magnetic Beads (Millipore LSKMAGG02) were suspended in 500 μL of 25 mM TRIS, 0.15M NaCl, and 0.1% Tween 20. Human plasma was diluted 1:5 in PBS to an end volume of 125 μL, separated into four tubes, and incubated for 30 min at RT with rotation. Beads were then collected with a magnetic stand, and the pre-cleared supernatant was transferred to a new tube containing magnetic beads coated with 82C2, 43A11, or 3A1. Antibody-conjugated beads were incubated with the plasma dilution overnight at 4° C. while rotating. Beads were then collected with a magnetic stand and the supernatant was removed of analysis of α2AP-AMC cleavage activity. To determine α2AP-AMC activity in the supernatants, a half area black 96 well plate was blocked with sterile filtered 5% BSA at 37° C. for 1h. Then 40 μL of PBS was added to all the wells, 5 μL of the supernatant solutions to the appropriate wells, and 5 μL of α2AP-AMC solution in methanol was added for a final assay concentration of 10 μM. The fluorescence intensity (cleaved AMC) was measured at 360 nm excitation and 460 nm emission every 3 min over a total time of 30 min and the reaction velocity was calculated using Graphpad Prism 6 software.

binding to transmembrane FAP, pH dependence (Δ MFI) (transmembrane human FAP): higher affinity at lower pHs | rate of FAP substrate alpha 2 anti-plasmin (α2AP-AMC) cleavage in plasma after immunoprecipitation (FAP from human plasma): significantly reduces
B1: NI-206.82C2: recombinant human memory B cell-derived monoclonal anti-FAP IgG1 antibody, variable regions in FIG. 1A, FAP inhibitory (antibody, V domains shown)
VH: QVQLQQSGPGLVKPSQTLSLTCAISGDSVSSNSVTWNWIRQSPSRGLEWLGRTYYRSKWYNDYAVSVKGRITINPDTSKNQFYLQLKSVTPEDAAVYYCARDSSILYGDYWGQGTLVTVSS
VL: QAVLTQPSSLSASPGASASLTCTLPSGINVGTYRIFWFQQKPGSPPQYLLSYKSDSDNHQGSGVPSRFSGSKDASANAGILLISGLQSEDEADYYCMIWHSSAWVFGGGTKLTVL

Source: patent US20170369592A1, “NOVEL ANTI-FIBROBLAST ACTIVATION PROTEIN (FAP) ANTIBODIES AND USES DERIVED THEREOF” (Mabimmune Diagnostics AG, priority 2015, published 2017)
